Values quoted from earlier work, collected in PMC11121562.

Target: Cyclin C (Homo sapiens) (UniProt P24863)
Sequence of UniProt P24863 (P24863 whole entry): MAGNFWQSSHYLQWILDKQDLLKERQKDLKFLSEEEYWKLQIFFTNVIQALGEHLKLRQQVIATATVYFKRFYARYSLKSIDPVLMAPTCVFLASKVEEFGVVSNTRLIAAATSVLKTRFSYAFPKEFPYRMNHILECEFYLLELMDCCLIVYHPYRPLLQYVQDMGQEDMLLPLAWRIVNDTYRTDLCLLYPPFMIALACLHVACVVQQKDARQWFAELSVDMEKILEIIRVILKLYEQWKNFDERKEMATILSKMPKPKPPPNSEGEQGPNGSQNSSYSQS

Kd: 7.05 nM
Substance: CDK8 (from UniProt P49336)
